Here are results for 8 molecules from patent US20240132599A1 (GAMMADELTA THERAPEUTICS, published 2024).

Substitutions are numbered along the chain they refer to. Read-outs that look alike come from different tables or passages of the source.

Experiment [1] has as its target T1, human EGFR, recombinant protein (human, UniProt P00533 25-645).
T1 construct: Bought protein; also called human EGFR antigen
Kind of experiment: SPR. Background: In SPR one partner is held on a chip, and binding of the other changes the refractive index at the surface.

Another experiment deals with T2, EGFR on HT-29 cells (human, UniProt P00533).
T2 construct: full length, cell surface; also called EGFR+ colon cancer cell line HT-29; HT-29 tumour cell
Kind of experiment: flow cytometry on HT-29 cells, 20 min at 4 C, anti-human IgG secondary.

Experiment [2] deals with T3, Vδ1 TCR on human Vδ1-positive γδ T cells (human, UniProt A0A1B0GX56 22-115).
T3 construct: also called Vδ1 γδ T-cells; cell surface Vδ1 TCR
The experiment is described as follows: flow cytometry on skin-derived Vδ1+ cells, 20 min at 4 C, anti-human Fc secondary. (In general: In flow cytometry, cells or beads pass a laser one at a time.)
Protocol: Cells were washed and stained with an anti-human Fc secondary antibody (Jackson Immunoresearch) and a viability dye for dead cells (eFlour 780, Invitrogen) for 20 minutes at 4° C. The cells were washed in FACS buffer and resuspended in Cell Fix (BD sciences) before analysis on a MACSQuant Analyser 10 flow cytometer (Miltenyi).

The target of experiment [3] is T3, Vδ1 TCR on human Vδ1-positive γδ T cells. The experiment is described as follows: flow cytometry on primary Vδ1 γδ T cells, 4 C, anti-human IgG-APC secondary, median fluorescence.
Protocol: (§1) Target cells were stained with varying concentrations of antibody, followed by a fluorescent anti-human IgG detection antibody. All incubation steps were performed at 4° C. and mAb binding was determined using flow cytometry to measure the median level of fluorescence. Logarithmic four parameter dose-response curves were fitted using GraphPad Prism 9.
(§2) Target cells were detached from tissue culture flask, resuspended in PBS and seeded at a final density of 100,000 cells per well in v-bottom 96-well plates. Cells underwent centrifugation and the cell pellets were resuspended in FcR blocking reagent according to the manufacturer's instructions, and incubated for 20 minutes at 4C prior to a further wash. Antibodies were diluted to 500 nM in PBS and serially diluted 1:10 in PBS to 50 μM, and added to the cells, followed by a 20-minute incubation at 4C. To determine the quantity of mAb bound to the cell surface, the cells were then stained with a murine anti-human IgG secondary antibody, conjugated to APC (dilution: 1:100) in addition to a viability dye. Following 20-minute incubation at 4C, the cells were washed twice, and fluorescence measured using the MACSQuant.
The target of experiment [4] is T4, L1 (DV1-GV4), recombinant soluble human Vδ1/Vγ4 γδ TCR heterodimer (human).
T4 construct: Biotinylated in the DELFIA ranking assay; also called human TRDV1; human Vδ1 antigen
The experiment is described as follows: SPR (Reichert 4SPR): antibody on a Protein A chip, human Vδ1 antigen flowed; column 'Affinity to Vδ1 (nM)'.
Protocol: Human Vδ1 antigen was flown over the cell at a 1:3 dilution series with top concentrations of 50 nM with the following parameters: 180s association, 900s dissociation, flow rate 25 μL/min, running buffer PBS+0.05% Tween-20. The chip surface was regenerated using 20 mM phosphoric acid following each injection. All experiments were performed at room temperature. Steady state fitting was determined according to Langmuir 1:1 binding using TraceDrawer software (Reichert Technologies.

The target in experiment [5] is T5, EGFR on A431 cells (human, UniProt P00533 25-1210).
T5 construct: whole, on cells; also called EGFR-positive A431; EGFR+A431 target cells
Kind of experiment: EGF blockade by flow cytometry: A431 cells pre-incubated with antibody 30 min at 4 C, then EGF-AF647; EGF binding MFI.
Protocol: Cells were then incubated for 1 hour at 4 degrees C., washed and stained with Live/dead dye (eFluor 520, Fisher) and incubated for a further 20 min at 4 degrees. The cells were washed in FACS buffer and resuspended in Cell Fix (BD sciences) before incubating overnight at 4° C. in the dark.

Experiment [6] has as its target T4, L1 (DV1-GV4), recombinant soluble human …. The experiment is described as follows: SPR.
Experiment [7] concerns the target T1, human EGFR, recombinant protein.
Experiment [8] shares this target. Kind of experiment: method not stated for this control.
Experiment [9] concerns the target T5, EGFR on A431 cells. The experiment is described as follows: flow cytometry on A431 cells, 4 C, anti-human IgG-APC secondary, median fluorescence.
Protocol: as §1, §2
Experiment [10] has as its target T4, L1 (DV1-GV4), recombinant soluble human …. Kind of experiment: SPR. The source holds these as a separate data set.
For experiment [11] the target is unchanged. The experiment is described as follows: SPR. The source holds these as a separate data set.
Experiment [12] concerns the target T1, human EGFR, recombinant protein. The experiment is described as follows: SPR (Reichert 4SPR): antibody captured on a Protein A chip, human EGFR flowed at 100 nM.
The target of experiment [13] is T4, L1 (DV1-GV4), recombinant soluble human …. Kind of experiment: SPR (Reichert 4SPR), antibody on Protein A chip, human Vδ1 antigen as analyte, 1:1 fit, mean of two replicates (Avg KD).
Description: The binding affinity of the antibodies to target (i.e. the Vδ1 chain of a γ TCR) is established by SPR analysis using a Reichert 4SPR instrument (Reichert Technologies).
The binding interaction of Vδ1 and the affinity-matured mAbs were modelled according to Langmuir 1:1 binding.
Experiment [14] addresses T3, Vδ1 TCR on human Vδ1-positive γδ T cells. Kind of experiment: flow cytometry binding to γδ T cells, Donor 2 (TS164); column head printed IC50 (nM), the text calls it EC50 of binding; same value in the table of FIG. 11C.
Protocol: (§3) (FIGS. 11A-11B) The level of binding by the V61 mAbs to two γδ T cell donors, ATS006 (FIG. 11A) and TS164 (FIG. 11B). γδ T cells were stained with varying concentrations of Vδ1 mAbs, followed by a fluorescent anti-human IgG detection antibody (xxx). All incubation steps were performed at 4° C. and mAb binding was determined using flow cytometry to measure the median level of fluorescence. Logarithmic four parameter dose-response curves were fitted using GraphPad Prism 9.
(§4) A range of target cells were assayed to determine the specificity and affinity of Vδ1 mAb binding. This included expanded skin-derived Vδ1 γδ T-cells, HEK293T cells, Raji cells, and multiple leukocyte subsets within human primary blood mononuclear cells. Adherent or semi-adherent cells (skin-derived Vδ1 γδ T-cells, HEK293T) were detached from tissue culture flask and resuspended in PBS. Similarly, non-adherent cell types (Raji, PBMC), were harvested and resuspended in PBS. Cells were seeded at a final density of 100,000 cells per well in v-bottom 96-well plates. Cells underwent centrifugation and the cell pellets were resuspended in FcR blocking reagent according to the manufacturer's instructions, and incubated for 20 minutes at 4C prior to a further wash. […] To determine the quantity of mAb bound to the cell surface, the cells were then stained with a murine anti-human IgG secondary antibody, conjugated to APC (product code . . . , dilution: 1:100). For Vδ1 γδ T-cells, HEK293T and Raji, the cells were also stained solely with a viability dye.
For experiment [15] the target is unchanged. Kind of experiment: flow cytometry binding to γδ T cells, Donor 1 (ATS006); column head printed IC50 (nM), the text calls it EC50 of binding; same value in the table of FIG. 11C.
Protocol: as §3, §4
Experiment [16] deals with T6, cyno antigen DV1/GV77, recombinant cynomolgus Vδ1 γδ TCR heterodimer (cynomolgus monkey).
T6 construct: also called cyno TRDV1; Cyno DV1-77; not shown: Delta-chain CDR3/J and constant part, the GV77 gamma chain, and any tags
The experiment is described as follows: SPR.

The target of experiment [17] is Vδ1 TCR on cynomolgus γδ T cells (cynomolgus monkey). Kind of experiment: cell-based or functional assay.
Experiment [18] deals with T1, human EGFR, recombinant protein. The experiment is described as follows: SPR (Reichert 4SPR): antibody captured on a Protein A chip, human EGFR flowed at 100 nM. This is another data set of the same source.
Experiment [19] has as its target T6, cyno antigen DV1/GV77, recombinant …. Kind of experiment: DELFIA ELISA, cyno antigen, heat map; all column labels read ADT1-4-110, clone assigned by the HC/LC CDR3 pair as in FIG. 4A and FIGS. 22-23. A general note: An ELISA detects its analyte on a solid surface through an enzyme-linked reagent.

T4 sequence (main, as listed by the source): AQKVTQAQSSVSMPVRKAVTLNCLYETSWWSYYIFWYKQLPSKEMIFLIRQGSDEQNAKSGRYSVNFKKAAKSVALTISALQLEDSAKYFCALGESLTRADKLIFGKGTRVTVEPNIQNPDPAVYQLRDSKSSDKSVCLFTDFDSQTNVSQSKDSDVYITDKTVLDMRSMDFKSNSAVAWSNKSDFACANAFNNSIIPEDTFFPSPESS
T3 sequence (A0A1B0GX56 22-115 limits assumed, stated change not applied): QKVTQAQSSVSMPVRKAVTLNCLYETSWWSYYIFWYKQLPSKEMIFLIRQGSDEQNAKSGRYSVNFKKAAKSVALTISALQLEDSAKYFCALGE
Chain of Vδ1 TCR on cynomolgus γδ T cells (cynomolgus monkey) (chain, as listed by the source): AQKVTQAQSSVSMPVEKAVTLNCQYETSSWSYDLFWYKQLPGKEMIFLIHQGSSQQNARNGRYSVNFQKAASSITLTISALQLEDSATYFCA
T6 sequence (delta, as listed by the source limits assumed): as the sequence (chain, as listed by the source) above
Protocol for EGFR on HT-29 cells: After washing, cells were incubated for a further 20 minutes with anti-human IgG secondary antibodies (Jackson Immunoresearch) and live/dead stain (eFluor 780, Invitrogen) before washing and fixing using CellFix. The amount of antibody bound to each cell type was determined using flow cytometry (MACSQuant Analyser 10, Miltenyi Biotech).

B1: ADT1-4-2/ADT3-2 (bispecific antibody)
heavy: EVQLQQSGPGLVKPSQTLSLTCAISGDSVSSKSAAWNWIRQSPSRGLEWLGRTYYRSKWSTDYAASVKSRITINPDTSKNQLSLQLNSVTPEDTAVYYCARTWVGYVDRWGQGTLVTVSSASTKGPSVFPLAPSSKSTSGGTAALGCLVKDYFPEPVTVSWNSGALTSGVHTFPAVLQSSGLYSLSSVVTVPSSSLGTQTYICNVNHKPSNTKVDKKVEPKSCDKTHTCPPCPAPELAGAPSVFLFPPKPKDTLMISRTPEVTCVVVDVSHEDPEVKFNWYVDGVEVHNAKTKPREEQYNSTYRVVSVLTVLHQDWLNGKEYKCKVSNKALPAPIEKTISKAKGQPREPQVYTLPPSRDELEEGPVSLTCLVKGFYPSDIAVEWESTYGPENNYKTTPPVLDSDGSFFLYSKLTVSYWRWYKGNVFSCSVMHEALHNHYTQKSLSLSPG
light: DIQMTQSPPALSASVGDRVTITCRASQDINDWLAWYQHKPGKAPKLLIYDASSLESGVPLRFSGSGSGTEFTLTISSLQPDDFATYYCQQKYSAPQVTFGQGTRLEIKRTVAAPSVFIFPPSDEQLKSGTASVVCLLNNFYPREAKVQWKVDNALQSGNSQESVTEQDSKDSTYSLSSTLTLSKADYEKHKVYACEVTHQGLSSPVTKSFNRGEC
notes: mAb2; also called ADT1-4-2 × LEE; ADT1-4-2xLEE
Consider B1, for which the dissociation constant (Kd) in experiment [1] was determined as 1.49 nM; in experiment [4] it was 0.24 nM. Besides, the EC50 with EGFR on HT-29 cells was found to be 0.537 nM; in experiment [2], 0.276 nM; with EGFR on A431 cells [5], 2.92 nM. The EC95 in experiment [2] came out at 2.7 nM. Moreover, in [3], the “EC50 (read off the curve)” value was ~0.8 nM.

B2: ADT1-4-2/ADT3-5 (bispecific antibody)
heavy: B1 heavy with E362T, E363K, G364N, P365Q
light: B1 light
notes: mAb2; also called ADT1-4-2xLEE1
For the molecule B2, the Kd amounted to 0.883 nM in [6], 142 nM in [1] and 140 nM in [7].

B3: D1.3xFS1-67 control (bispecific antibody, V domains shown)
VH: QVQLQESGPGLVRPSQTLSLTCTVSGSTFSGYGVNWVRQPPGRGLEWIGMIWGDGNTDYNSALKSRVTMLVDTSKNQFSLRLSSVTAADTAVYYCARERDYRLDYWGQGSLVTVSS
VL: DIQMTQSPSSLSASVGDRVTITCRASGNIHNYLAWYQQKPGKAPKLLIYYTTTLADGVPSRFSGSGSGTDYTFTISSLQPEDIATYYCQHFWSTPRTFGQGTKVEIKR
notes: Only one entry is named for the whole molecule; it may hold heavy and light chains together; also called D1.3 FS1-67
For B3, the Kd in experiment [8] was found to be 1 nM. For the same molecule, a half-maximal effect with EGFR on HT-29 cells (EC50) was put at 0.281 nM. Further, the “MFI (at saturation)” value in experiment [2] was ~0.495 MFI. Besides, the “EC50 (read off the curve)” value with EGFR on A431 cells [9] is ~8 nM. For the same molecule, the binding result in experiment [3] is listed as “no binding (tested: 500 nM)”.

B4: ADT1-4-1 (antibody, IgG1, V domains shown)
VH: EVQLQQSGPGLVKPSQTLSLTCAISGDSVSSKSAAWNWIRQSPSRGLEWLGRTYYRSKWSTDYAASVKSRITINPDTSKNQLSLQLNSVTPEDTAVYYCARTWVGYADVWGQGTLVTVSS
VL: DIQMTQSPPALSASVGDRVTITCRASQDINDWLAWYQHKPGKAPKLLIYDASSLESGVPLRFSGSGSGTEFTLTISSLQPDDFATYYCQQRYSTPIVTFGQGTRLEIK
notes: IgG1
B4: the Kd in experiment [10] and in experiment [11] was 0.08 nM each time.

B5: ADT1-4 (parental) (antibody, IgG1, V domains shown)
VH: B4 VH with E1Q, V104S, A107V
VL: B4 VL with L60S, R91S, I96Q
notes: IgG1; also called G04; 1245_P02_G04
With B5, the values for the Kd in experiment [6] and in experiment [13] were 115 nM and 149 nM, respectively. The binding result in experiment [12] is “no binding (tested: 100 nM)”. Further, the EC50 in [14] amounted to 576 nM; in experiment [15], 108 nM.

B6: ADT1-4-8 (antibody, IgG1, V domains shown)
VH: B4 VH with T102S, A107V
VL: B4 VL with R91K, T94A, I96Q
notes: IgG1
With B6, the Kd in [10] stood at 0.541 nM; in [16] it was 15.1 nM.

B7: ADT1-4-2 (antibody, IgG1, V domains shown)
VH: B4 VH with A107V, V109R
VL: B4 VL with R91K, T94A, I96Q
notes: IgG1
In the case of B7, the Kd in experiment [6] came to 0.522 nM. Moreover, in experiment [17], the “EC50 (read off the curve), TCR downregulation, donor AD8170” value lay within 4 to 5 nM and the “EC50 (read off the curve), TCR downregulation, donor AM945BA” value was ~2 nM. Besides, the binding result in the experiment with EGFR on A431 cells [9] is “no binding (tested: 500 nM)”. Besides, the binding result in experiment [18] is given as “no binding (tested: 100 nM)”.

B8: ADT1-4-139 (antibody, IgG1, V domains shown)
VH: B4 VH with A107V, V109Y
VL: B4 VL with R91G, I96Q, V97L
notes: IgG1
As to B8, the “Heat Map (Cyno) value (ELISA signal)” value in [19] was 57600.

As a reminder, the Kd is the free concentration of one partner at which half of the binding sites on the other are occupied at equilibrium, for simple one-to-one binding. As a reminder, the EC50 is the concentration needed to bring the measured effect to its halfway point. Read a low EC50 as greater potency. A word on the EC95: it is the point of the concentration-response curve where the effect stands at 95%. Usually EC50 (read off the curve) stands for the concentration at which the effect is half-maximal. The low end stands for a more potent agent, the high end for a less potent agent.
